For two substances, Kd results are on record in publication PMC3620356.

By Kd is commonly meant the concentration at which binding is half-saturated.

Experiment [1] deals with mature NIH45-46 IgG (human). In words: BLI.
Experiment [2] concerns the target 426c Env trimeric gp140 (wild type) (HIV-1 clade C, isolate 426c (HVTN503 participant)) (UniProt M4Q8P8). Put plainly: BLI. (In BLI a coated tip is dipped into the sample, and binding shifts an interference pattern.)

The substance “426c Env trimeric gp140 lacking the NLGS at position 276 (N276D) (natural protein)” yielded a Kd in experiment [1] of 3.66 nM.

As to mature NIH45-46 IgG (antibody), in experiment [2], the Kd is 10.6 nM. That is a double-digit nanomolar value.
